This note sets out measurements from article PMC4358659, “The functional interactome of PYHIN immune regulators reveals IFIX is a sensor of viral DNA”.

For series [1], the target named is T1, GST-IFIX-HIN200 (human, UniProt Q6K0P9 200-492).
T1 sequence: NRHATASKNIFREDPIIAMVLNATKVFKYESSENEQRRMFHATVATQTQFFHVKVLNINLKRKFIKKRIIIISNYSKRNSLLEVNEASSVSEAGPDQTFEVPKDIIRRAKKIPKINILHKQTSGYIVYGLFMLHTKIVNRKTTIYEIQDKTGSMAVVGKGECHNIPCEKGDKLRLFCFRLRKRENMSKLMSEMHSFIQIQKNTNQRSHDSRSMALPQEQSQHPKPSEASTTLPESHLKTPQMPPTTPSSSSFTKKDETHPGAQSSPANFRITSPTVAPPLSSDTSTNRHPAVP
In words: EMSA; 2 pmol protein, 20 fmol DNA; EMSA: 10 mM Tris pH 7.5, 50 mM KCl, 1 mM DTT, 50 μg/ml BSA, ambient temperature, 30 min. As to conditions: protein: recombinant; tags: N-terminal GST (pGEX-4T1); label: 5'-biotin on sense strand; blunt. (In general: A gel shift assay detects complexes by their altered migration in electrophoresis.)

Series [2] deals with T1, GST-IFIX-HIN200. In words: competition; unlabeled ISD competes with biotinylated ISD (EMSA); EMSA: 10 mM Tris pH 7.5, 50 mM KCl, 1 mM DTT, 50 μg/ml BSA, ambient temperature, 30 min. As to conditions: protein: recombinant; tags: N-terminal GST (pGEX-4T1); blunt.

B1: ISD (biotinylated) (dsDNA)
DNA 1: TACAGATCTACTAGTGATCTATGACTGATCTGTACATGATCTACA
DNA 2: TGTAGATCATGTACAGATCAGTCATAGATCACTAGTAGATCTGTA
Turning to B1, the binding result with GST-IFIX-HIN200 [1] is “binds”.

B2: ISD (unlabeled competitor) (dsDNA)
DNA 1: TACAGATCTACTAGTGATCTATGACTGATCTGTACATGATCTACA
DNA 2: TGTAGATCATGTACAGATCAGTCATAGATCACTAGTAGATCTGTA
With B2, the binding result with GST-IFIX-HIN200 [2] was “binds”.
